From PMC7617670, “Activity Regulation of a Glutamine Amidotransferase Bienzyme Complex by Substrate-Induced Subunit Interface Expansion” (ACS catalysis, 2025)
Changes are numbered by the printed parent chain. Names and notes keep the numbering of the source.

B1: PabB, synthase subunit of aminodeoxychorismate synthase (ADCS) from Escherichia coli, wild type (enzyme)
chain: MKTLSPAVITLLWRQDAAEFYFSRLSHLPWAMLLHSGYADHPYSRFDIVVAEPICTLTTFGKETVVSESEKRTTTTDDPLQVLQQVLDRADIRPTHNEDLPFQGGALGLFGYDLGRRFESLPEIAEQDIVLPDMAVGIYDWALIVDHQRHTVSLLSHNDVNARRAWLESQQFSPQEDFTLTSDWQSNMTREQYGEKFRQVQEYLHSGDCYQVNLAQRFHATYSGDEWQAFLQLNQANRAPFSAFLRLEQGAILSLSPERFILCDNSEIQTRPIKGTLPRLPDPQEDSKQAVKLANSAKDRAENLMIVDLMRNDIGRVAVAGSVKVPELFVVEPFPAVHHLVSTITAQLPEQLHASDLLRAAFPGGSITGAPKVRAMEIIDELEPQRRNAWCGSIGYLSFCGNMDTSITIRTLTAINGQIFCSAGGGIVADSQEEAEYQETFDKVNRILKQLEK
B2: PabB variant bR311A (enzyme, Escherichia coli)
chain: B1 chain with R311A
B3: PabB variant bD308E (enzyme, Escherichia coli)
chain: B1 chain with D308E
B4: PabB variant bD308N (enzyme, Escherichia coli)
chain: B1 chain with D308N
B5: PabB variant bD308A (enzyme, Escherichia coli)
chain: B1 chain with D308A
B6: PabB variant bE119R (enzyme, Escherichia coli)
chain: B1 chain with E119R
B7: PabA, glutaminase subunit of ADCS from Escherichia coli, as crystallized, with glutamyl thioester (Gln-TE) on aC79 (enzyme)
chain: MILLIDNYDSFTWNLYQYFCELGADVLVKRNDALTLADIDALKPQKIVISPGPCTPDEAGISLDVIRHYAGRLPILGVCLGHQAMAQAFGGKVVRAAKVMHGKTSPITHNGEGVFRGLANPLTVTRYHSLVVEPDSLPACFDVTAWSETREIMGIRHRQWDLEGVQFHPESILSEQGHQLLANFLHR
modifications: glutamyl thioester (Gln-TE) adduct covalently bound to the catalytic C79
notes: PabA, class I glutaminase subunit of ADCS, E. coli; the gene was cloned into pET28a; Same construct as m20; the adduct forms in one of the two heterodimers of the crystals grown with Gln; also called PabA with Gln-TE; source: E. coli BL21-Gold (DE3), purified (Ni-IMAC, TEV cleavage, reverse IMAC, preparative gel filtration); crystallized with 0.2 M L-Gln; not shown: His6, N-terminal, cleaved
B8: PabA variant aP53A (enzyme, Escherichia coli)
chain: B7 chain with P53A
notes: PabA, glutaminase subunit of ADCS, E. coli; construct as m1 with one exchange; Made by QuikChange mutagenesis from the construct of m1; source: E. coli BL21-Gold (DE3), purified (Ni-IMAC, preparative gel filtration)
B9: PabA variant aC54G (enzyme, Escherichia coli)
chain: B7 chain with C54G
notes: as for B8
B10: PabA variant aC54A (enzyme, Escherichia coli)
chain: B7 chain with C54A
notes: as for B8
B11: PabA variant aH128A (enzyme, Escherichia coli)
chain: B7 chain with H128A
notes: as for B8
B12: PabA variant aR30E (enzyme, Escherichia coli)
chain: B7 chain with R30E
notes: as for B8
B13: PabA variant aS171A (enzyme, Escherichia coli)
chain: B7 chain with S171A
notes: as for B8
B14: PabA double variant [Y127A, S171A] (enzyme, Escherichia coli)
chain: B7 chain with Y127A, S171A
notes: PabA, glutaminase subunit of ADCS, E. coli; construct as m1 with two exchanges; Made by mutagenesis from the construct of m1; source: E. coli BL21-Gold (DE3), purified (Ni-IMAC, preparative gel filtration)

What follows are binders tested against T1, PabA, glutaminase subunit of aminodeoxychorismate synthase (ADCS) from Escherichia coli, wild type (Escherichia coli, UniProt P00903 1-187) (assay: cell-based or functional assay). Settings: not given.
T1 sequence: B7 chain

Binder | glutaminase catalytic efficiency kcat/KM^Gln (coupled GDH assay, 200 μM Cho, PabB in fourfold excess)
B1 | 1090 M⁻¹ s⁻¹
B2 | 100 M⁻¹ s⁻¹
B3 | 1540 M⁻¹ s⁻¹
B4 | 36 M⁻¹ s⁻¹
B5 | 13 M⁻¹ s⁻¹
B6 | 60 M⁻¹ s⁻¹

The binders below were run against B12 (assay: cell-based or functional assay). Settings: not given.

Binder | glutaminase catalytic efficiency kcat/KM^Gln (coupled GDH assay, 200 μM Cho, PabB in fourfold excess)
B1 | 79 M⁻¹ s⁻¹

Each binder was assayed against T2, PabB, synthase subunit of ADCS from Escherichia coli, as crystallized (His tag cleaved) (Escherichia coli, UniProt P05041 1-453) (assay: crystal structure; ADCS heterodimer with Gln-TE on aC79; reservoir supplemented with 0.2 M L-Gln, with or without 14.4 mM Cho added afterwards; 0.1 M MES pH 6.5, 1.5 M magnesium sulfate, 18 °C). Settings: both partners purified.
T2 construct: PabB, synthase subunit of ADCS, E. coli; the gene was cloned into pET28a; Cho and Mg2+ in 8RP0; also called ADCS synthase subunit; source: E. coli BL21-Gold (DE3), purified (Ni-IMAC, TEV cleavage, reverse IMAC, preparative gel filtration); not shown: His6, N-terminal, cleaved
T2 sequence: B1 chain

Binder | binding result
B7 | binds

These binders were tested against B1 (assay: ITC; 250 μM PabB titrated into 25 μM PabA in the cell; 25 °C; 50 mM Tris/HCl pH 7.5, 50 mM KCl, 5 mM MgCl2; without Cho and Gln; one set of sites). Settings: both partners purified.

Binder | Kd
B8 | 180 nM
B9 | 60 nM
B10 | 180 nM
B11 | 370 nM
B12 | 380 nM
B13 | 920 nM

The binders below were run against B1 (assay: SEC; analytical SEC with 5 mM L-Gln in the buffer; PabA and PabB mixed equimolar, 50 μM each; Superdex 200 increase 10/300 GL; 50 mM Tris/HCl pH 7.5, 50 mM KCl, 5 mM MgCl2, 2 mM DTT; 25 °C; without Cho). Settings: both partners purified.

Binder | binding result
B14 | binds
